Experimental data taken from article PMC4019986, “Structural and biochemical characterization of the KLHL3–WNK kinase interaction important in blood pressure regulation” (Biochemical Journal, 2014).
Residue numbers refer to the chain shown, from its start. Blank lines part the entries; values can stand above or below the molecule they belong to. Ends that are not written are not given here. Peptide text beside a SMILES is read from it. * marks the point of attachment. X1 = N[C@H]1CS[As]2SC[C@H](NC1=O)C(=O)N1CCC[C@H]1C(=O)NCC(=O)N[C@H]1CS[As](SC[C@@H](C(=O)*)NC1=O)c1c(O)ccc3c1Oc1c(ccc(O)c12)C31OC(=O)c2ccccc21

Key:
[1] = biological target: GST–KLHL3^290–587 R528H (Homo sapiens, UniProt Q9UH77, R528H); type: binding
[2] = biological target: T1, KLHL3 full-length protein (residues 1–587) (human, UniProt Q9UH77-1 1-587); experiment: fluorescence polarisation; Kelch protein titrated against 10 nM Lumio-Green-labelled peptide; 25°C; 50 mM Tris/HCl pH 7.5, 150 mM NaCl, 2 mM DTT; one-site specific binding with Hill slope; duplicates, at least 12 points per curve; details: both partners purified
T1 construct: Kelch-like protein 3 (KLHL3), human, NM_017415.2, residues 1-587; also called Kelch-like protein 3; source: Sf21 cells, expressed and purified as a DAC-(TEV protease)KLHL3 fusion protein
T1 sequence (looked up): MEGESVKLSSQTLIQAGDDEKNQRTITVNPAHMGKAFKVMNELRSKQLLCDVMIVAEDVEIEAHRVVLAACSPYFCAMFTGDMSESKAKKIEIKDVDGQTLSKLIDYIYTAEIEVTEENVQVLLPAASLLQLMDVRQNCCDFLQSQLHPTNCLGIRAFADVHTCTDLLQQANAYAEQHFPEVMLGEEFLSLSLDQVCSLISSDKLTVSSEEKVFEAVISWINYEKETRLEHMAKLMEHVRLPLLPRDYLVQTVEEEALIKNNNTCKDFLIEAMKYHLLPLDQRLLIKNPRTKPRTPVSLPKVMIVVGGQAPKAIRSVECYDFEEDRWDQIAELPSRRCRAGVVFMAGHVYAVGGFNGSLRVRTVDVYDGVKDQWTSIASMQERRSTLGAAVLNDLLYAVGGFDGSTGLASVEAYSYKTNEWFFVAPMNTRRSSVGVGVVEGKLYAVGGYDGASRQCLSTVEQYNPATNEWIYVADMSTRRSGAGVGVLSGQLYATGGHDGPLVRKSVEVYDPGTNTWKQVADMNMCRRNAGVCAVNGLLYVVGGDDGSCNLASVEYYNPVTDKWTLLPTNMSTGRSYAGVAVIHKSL

[3] = biological target: T2, GST–KLHL3^290–587 R528H (human, UniProt Q9UH77-1 290-587, R528H); experiment: as above; details: both partners purified
T2 construct: KLHL3, human, NM_017415.2, Kelch domain, residues 290-587, with the Gordon's syndrome mutation R528H; Mutation found in patients with Gordon's syndrome; also called KLHL3 R528H; source: E. coli BL21, purified (glutathione–Sepharose); not shown: GST, N-terminal, kept
T2 sequence (looked up): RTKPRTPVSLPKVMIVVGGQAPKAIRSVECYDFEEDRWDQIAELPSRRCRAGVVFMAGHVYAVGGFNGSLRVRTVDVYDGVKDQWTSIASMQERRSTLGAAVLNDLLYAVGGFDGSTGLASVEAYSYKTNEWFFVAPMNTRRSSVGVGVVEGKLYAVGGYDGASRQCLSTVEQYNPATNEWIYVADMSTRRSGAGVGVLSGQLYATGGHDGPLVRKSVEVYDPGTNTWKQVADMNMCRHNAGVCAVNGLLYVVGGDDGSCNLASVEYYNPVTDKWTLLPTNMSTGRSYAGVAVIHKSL

[4] = biological target: T3, GST–KLHL3^290–587 N529K (human, UniProt Q9UH77-1 290-587, N529K); experiment: as above; details: both partners purified
T3 construct: KLHL3, human, NM_017415.2, Kelch domain, residues 290-587, with the Gordon's syndrome mutation N529K; Mutation found in patients with Gordon's syndrome; also called KLHL3 N529K; source: E. coli BL21, purified (glutathione–Sepharose); not shown: GST, N-terminal, kept
T3 sequence (looked up): T2 sequence (looked up) with H239R, N240K

Molecule: CC(C)[C@H](NC(=O)[C@H](CO)NC(=O)[C@@H]1CCCN1C(=O)[C@@H]1CCCN1C(=O)CNC(=O)CNC(=O)CNC(=O)CNC(=O)CNC(=O)[C@@H]1CS[As]2SC[C@H](NC(=O)CNC(=O)[C@@H]3CCCN3C(=O)[C@@H]3CS[As](SC[C@H](N)C(=O)N3)c3c(O)ccc4c3Oc3c(ccc(O)c32)C42OC(=O)c3ccccc32)C(=O)N1)C(=O)N[C@@H](Cc1ccccc1)C(=O)N1CCC[C@H]1C(=O)N1CCC[C@H]1C(=O)N[C@@H](CCC(=O)O)C(=O)N1CCC[C@H]1C(=O)N[C@@H](CCC(=O)O)C(=O)N[C@@H](CCC(=O)O)C(=O)N1CCC[C@H]1C(=O)N[C@@H](CCC(=O)O)C(=O)N[C@@H](C)C(=O)N[C@@H](CC(=O)O)C(=O)N[C@@H](CCC(N)=O)C(=O)N[C@@H](Cc1cnc[nH]1)C(=O)N[C@@H](CCC(N)=O)C(=O)O (stereo partly shown) [WNK4 WT 549–567] (X1-GGGGGPPSVFPPEPEEPEADQHQ-OH)
reduction of binding relative to wild-type KLHL3 [1]: approximately 10 fold

Kd [2]: 620 nM | Kd [3]: 1930 nM | Kd [4]: 6600 nM
B1: 19-residue WNK4 degron peptide (WNK4 WT 549–567) (peptide)
peptide: GPPSVFPPEPEEPEADQHQ
modifications: not fully specified (N-terminus); also: Lumio Green fluorophore on N-terminal linker CCPGCCGGGG
notes: WNK4 acidic degron, residues 549-567; also called WNK4 19-residue peptide; source: synthetic peptide (GL Biochem)
